The target of assay [1] is T1, human IL-3Rα S59A/P88T double mutant, full length (human, UniProt P26951 19-378).
T1 chain: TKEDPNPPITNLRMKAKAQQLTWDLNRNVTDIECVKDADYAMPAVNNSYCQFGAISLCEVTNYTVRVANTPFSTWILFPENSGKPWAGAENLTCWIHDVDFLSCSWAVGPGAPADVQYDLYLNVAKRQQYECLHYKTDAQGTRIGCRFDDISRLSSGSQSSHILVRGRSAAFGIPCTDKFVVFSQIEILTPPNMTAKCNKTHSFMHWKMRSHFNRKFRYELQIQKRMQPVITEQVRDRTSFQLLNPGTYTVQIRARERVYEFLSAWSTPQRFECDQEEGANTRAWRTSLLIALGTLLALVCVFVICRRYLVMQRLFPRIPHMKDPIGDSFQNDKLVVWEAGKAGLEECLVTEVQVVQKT
The experiment in a line: flow cytometry on transfected cells (FIG. 5). A general note: A flow cytometer gives signals particle by particle.

The target of assay [2] is T2, human IL-3Rα E51Q/S59A/P88T triple mutant, full length (human, UniProt P26951 19-378).
T2 chain: T1 chain with E33Q
The experiment in a line: flow cytometry on transfected cells (FIG. 5).

Assay [3] deals with T3, human IL-3Rα E51Q/S59A double mutant, full length (human, UniProt P26951 19-378).
T3 chain: T1 chain with E33Q, T70P
Nature of the assay: flow cytometry on transfected cells (FIG. 5).

The target of assay [4] is T4, human IL-3Rα E51Q/P88T double mutant, full length (human, UniProt P26951 19-378).
T4 chain: T1 chain with E33Q, A41S
Nature of the assay: flow cytometry on transfected cells (FIG. 5).

The target of assay [5] is T5, full length human IL-3Rα, wild type (human, UniProt P26951 19-378).
T5 construct: expressed in 293F cells; also called WT
T5 sequence: T1 chain with A41S, T70P
Nature of the assay: flow cytometry, MFI normalised to WT (reference, set as 100%). As to the method: Median fluorescence intensity (MFI) of each antibody was determined for WT IL-3Rα and for each IL-3Rα mutant. The MFI of WT IL-3Rα staining for each antibody was set as 100% then the MFI of each mutant was normalized to a percent of WT staining.

Assay [6] has as its target T6, human IL-3Rα P61A, full length (human, UniProt P26951 19-378).
T6 construct: expressed in 293F cells; Western blot of whole cell extracts; also called P61, cell surface alanine
T6 sequence: T1 chain with A41S, P43A, T70P
Nature of the assay: Western blot, whole cell extracts of 293F cells. (A western blot detects proteins with antibodies after separation by electrophoresis.)

Numbering of substitutions follows the chain as printed.

B1: antibody CSL362 (antibody, V domains shown)
VH: EVQLVQSGAEVKKPGESLKISCKGSGYSFTDYYMKWARQMPGKGLEWMGDIIPSNGATFYNQKFKGQVTISADKSISTTYLQWSSLKASDTAMYYCARSHLLRASWFAYWGQGTMVTVSS
VL: DIVMTQSPDSLAVSLGERATINCESSQSLLNSGNQKNYLTWYQQKPGQPPKPLIYWASTRESGVPDRFSGSGSGTDFTLTISSLQAEDVAVYYCQNDYSYPYTFGQGTKLEIKR
For B1, the binding result in assay [1], in assay [2], in assay [3] and in assay [4] was “no binding” in each case.

B2: monoclonal antibody 7G3 (antibody, V domains shown)
VH: EVQLQQSGPELVKPGASVKMSCKASGYTFTDYYMKWVKQSHGKSLEWIGDIIPSNGATFYNQKFKGKATLTVDRSSSTAYMHLNSLTSEDSAVYYCTRSHLLRASWFAYWGQGTLVTVSA
VL: DFVMTQSPSSLTVTAGEKVTMSCKSSQSLLNSGNQKNYLTWYLQKPGQPPKLLIYWASTRESGVPDRFTGSGSGTDFTLTISSVQAEDLAVYYCQNDYSYPYTFGGGTKLEIKR
notes: mouse monoclonal antibody (hybridoma ATCC HB-12009)
As to B2, the “MFI as percent of WT staining” value in assay [5] was 100 % of WT MFI. In addition, in assay [6], the binding result is “no binding”.

The values above are taken from patent US20160031996A1 (CSL, published 2016).
